Experimental data: paper PMC7954794, “Protein context shapes the specificity of SH3 domain-mediated interactions in vivo” (Nature Communications, 2021)

Tests used:
[1] = system: 575 putative partners (preys) of 22 WT SH3-containing proteins; experiment: DHFR-PCA on solid medium, WT and SH3-deleted baits (Fig. 1B); type: cell-based, Saccharomyces cerevisiae; design: key to Score: 0: SH3-independent; 1: SH3-dependent PPIs; 2: SH3-inhibited PPIs; settings: for medrep (log2 median colony size normalized to plate background, PCA score): label = prey; for Ratio (SH3-deleted/WT medrep): only significant differences shown, PPIs completely lost have a ratio of 0.1, gained PPIs 2.5
Excerpt: To assess the requirement of SH3 domains for PPIs in vivo, we first measured binary interactions between 22 WT SH3-containing proteins (Supplementary Fig. 1A) as baits and 575 putative partners from their interconnected signaling networks using the dihydrofolate reductase protein–fragment complementation assay (DHFR-PCA) in the budding yeast Saccharomyces cerevisiae. About 33% (202/607) of the PPIs detected were described before, mostly by direct methods (Supplementary Fig. 1B, C)[11]. We repeated the experiments with baits in which the SH3s were individually replaced with a flexible linker by genome editing (SH3 domain deletion/stuffing, Fig. 1A). The stuffer DNA sequence ([…]) codes for a small flexible poly-Gly with Ser peptide ([…]) that is inspired by previous experiments[12],[13]. About a third of the SH3-containing protein interactome is qualitatively or quantitatively SH3-dependent (171 PPIs out of 607, Fig. 1B and Supplementary Fig. 1B, C). We validated the vast majority of the quantitative changes in low-throughput experiments and excluded that this is simply due to changes in protein abundance in most cases (Supplementary Fig. 1D–G). SH3-binding motifs[14] are more frequent in the SH3-dependent PPI partners when compared to sequences from random proteins, SH3-independent PPI partners or PPI partners that are stronger or gained following SH3 deletions (p values = 1.5 × 10^−17, 0.0038 and 2.1 × 10^−08, respectively; Mann–Whitney test, one-tailed, Fig. 1C). The changes we measure are therefore enriched for PPIs that depend on the direct interactions of the domains with the PPI partners.
The complete list of strains, primers, and gRNAs used in this study can be found in Supplementary Tables 1–3. All constructed yeast strains were validated by polymerase chain reaction (PCR) and confirmed by Sanger sequencing of the locus of interest. Bait strains for the DHFR-PCA experiments were constructed as follows. The genes of interest were fused at their genomic 3′ end by replacing the stop codon with a linker ([…]), the DHFR F[1,2] followed by a smaller linker (GGGGS), a 1× FLAG tag ([…]) and the NATMX4 resistance cassette via homologous recombination (all amplified from pAG25-DHFR[1,2]-linker-FLAG). The set of 615 prey strains (DHFR F[3] fusions in the BY4742 background) were retrieved from the Yeast Protein Interactome Collection[43] with the exception of 73 that were reconstructed (Supplementary Tables 1 and 2). Knockout strains were taken from the yeast knockout collection except for ABP1, BEM1, BZZ1, and SLA1, which were reconstructed by replacing the ORFs with the NATMX4 resistance cassette by homologous recombination in the BY4741 background.
Yeast SH3 domain genomic sequences were replaced by CRISPR–Cas9 genome editing. Each SH3 domain (as defined by the SMART database V8.0 except for Ysc84 SH3 (as defined by PROSITE), see Source Data for all SH3 sequences and Supplementary Table 1 for primers used) was specifically targeted by one gRNA[46]. Yeast competent cells were co-transformed with a pCAS plasmid (Addgene plasmid 60847[47]) expressing both the gRNA of interest and Streptococcus pyogenes Cas9[46] and a donor DNA sequence (stuffer) with 60 bp homology arms surrounding the SH3 DNA sequence. The Stuffer DNA was either PCR amplified or digested from a plasmid. The stuffer DNA sequence ([…]) codes for a small flexible linker ([…]) inspired by protein linkers used in structural biology[12],[13]. This type of linker is frequently used for fusing proteins without affecting the structure of the linked proteins.
The overall DHFR-PCA pipeline is based on Tarassov et al.[43] and the procedures have also been published as a visualized protocol. The screens were performed with robotically manipulated pin tools (BM5-SC1, S&P Robotics Inc.). First, the preys were cherry-picked from 96-well plates to omnitrays in a 384 format on YPD + HPH solid media. […]

[2] = system: ABP1; experiment: DHFR-PCA on solid medium, bait ABP1 (Fig. 1B); type: cell-based, Saccharomyces cerevisiae; settings: bait ABP1, label = prey; 2-4 replicates
Excerpt: Supplement 41467_2021_21873_MOESM8_ESM.xlsx, sheet "Fig1B" | column: medsize; medrep; Ratio; Score

[3] = bait SLA1-3, DHFR-PCA, Replicates 4 (2 for YCR009C, YDR388W, YIL033C)
[4] = bait SLA1-2, DHFR-PCA, Replicates 4 (2 for YCR009C, YDR388W)

Molecule | medrep (log2 median colony size normalized to plate background, PCA score) [1, 3] | Score ([1]; bait SLA1-3, label = prey) | medrep (log2 median colony size normalized to plate background, PCA score) [2] | medrep (log2 median colony size normalized to plate background, PCA score) [1, 4] | Score ([1]; bait SLA1-2, label = prey) | Ratio (SH3-deleted/WT medrep) ([1]; bait SLA1-2, label = prey) | Ratio (SH3-deleted/WT medrep) ([1]; bait SLA1-3, label = prey)
YNL084C (protein, UniProt P39013 1-349, looked up) Actin cytoskeleton-regulatory …: MPKLEQFEIKKYWQIFSGLKPIENKVNHDQVLPILYNSKLDSSVLNKIWFLADIDDDDNLDFEEFVICMRLIFDMVNKNISSVPDELPDWLIPGSKVNLIKERKKRKQIENADLPPKKEIKVDWYMSPDDLNQYEKIYNSCAKLTDGTITFNELSTKLSTKFFNISKTDLNKVWSLINPQNLPSIDRDPTFYFIHCLRQRNDLGAEIPASLPNSLAEVCNKKQLSYDLRSSQPPTKRKEEANEVDNLRDNGQNSSSDSSGSNVLSNEDSIKQKYASLTDDQVANMREQLEGLLNYKKSEKTQGGSKLSKRINIRSITDDLDNIEQQVEVLENYLNNKRHELQALQAEIN | 4.605 | 0 | 4.13 | – | – | – | –
YNL229C (protein, UniProt P23202 2-354, looked up) Transcriptional regulator URE2: MNNNGNQVSNLSNALRQVNIGNRNSNTTTDQSNINFEFSTGVNNNNNNNSSSNNNNVQNNNSGRNGSQNNDNENNIKNTLEQHRQQQQAFSDMSHVEYSRITKFFQEQPLEGYTLFSHRSAPNGFKVAIVLSELGFHYNTIFLDFNLGEHRAPEFVSVNPNARVPALIDHGMDNLSIWESGAILLHLVNKYYKETGNPLLWSDDLADQSQINAWLFFQTSGHAPMIGQALHFRYFHSQKIASAVERYTDEVRRVYGVVEMALAERREALVMELDTENAAAYSAGTTPMSQSRFFDYPVWLVGDKLTIADLAFVPWNNVVDRIGINIKIEFPEVYKWTKHMMRRPAVIKALRGE | 1.546 | 0 | 1.889 | 1.546 | 1 | 0.1 | –
YML035C (protein, UniProt P15274 1-810, looked up) AMP deaminase: MDNQATQRLNDLSLEPAPSHDEQDGSGLVIDIDQRKIGDEQAGVVVDDETPPLEQQDSHESLAADSRNANFSYHENQQLLENGTKQLALDEHDSHSAILEQPSHSTNCSSSNIAAMNKGHDSADHASQNSGGKPRTLSASAQHILPETLKSFAGAPVVNKQVRTSASYKMGMLADDASQQFLDDPSSELIDLYSKVAECRNLRAKYQTISVQNDDQNPKNKPGWVVYPPPPKPSYNSDTKTVVPVTNKPDAEVFDFTKCEIPGEDPDWEFTLNDDDSYVVHRSGKTDELIAQIPTLRDYYLDLEKMISISSDGPAKSFAYRRLQYLEARWNLYYLLNEYQETSVSKRNPHRDFYNVRKVDTHVHHSACMNQKHLLRFIKHKLRHSKDEKVIFRDGKLLTLDEVFRSLHLTGYDLSIDTLDMHAHKDTFHRFDKFNLKYNPIGESRLREIFLKTNNYIKGTYLADITKQVIFDLENSKYQNCEYRISVYGRSLDEWDKLASWVIDNKVISHNVRWLVQIPRLYDIYKKTGIVQSFQDICKNLFQPLFEVTKNPQSHPKLHVFLQRVIGFDSVDDESKVDRRFHRKYPKPSLWEAPQNPPYSYYLYYLYSNVASLNQWRAKRGFNTLVLRPHCGEAGDPEHLVSAYLLAHGISHGILLRKVPFVQYLYYLDQVGIAMSPLSNNALFLTYDKNPFPRYFKRGLNVSLSTDDPLQFSYTREPLIEEYSVAAQIYKLSNVDMCELARNSVLQSGWEAQIKKHWIGKDFDKSGVEGNDVVRTNVPDIRINYRYDTLSTELELVNHFANFKRTIEEK | 2.073 | 0 | 3.81 | 2.073 | 1 | 0.1 | –
YNL106C (protein, UniProt P50942 1-1183, looked up) Polyphosphatidylinositol …: MKILLSKQQTRKIAIVSETHGLVFRPINSKNSRRSTCAVELVPKAELNGNGFRRLSNHEIYGFIGLIEIEGLMFIATITGKSKVAQPIPNKTVNKIYAVDFFCLNNSKWDFMDIDSSGYPIVTNDGDFAISSPPSISTHSSRSSLRSSSSRSLNAQEQAPKHPCHELRKLLSNGSFYYSTDFDLTCTLQKRGFTEHSLSFDDFDREFMWNSFLMDEIITYRDRLDVTAKELLDQRGFLTTVIRGFAETIFSYINRLKVGLTIISRQSWKRAGTRFNARGIDDDGHVANFVETEMIMYSSQYCYAFTQIRGSLPIFWEQDTSLISPKIQITRSVEATQPTFDEHFIRLFKKYGPVHIINLLSTKSSEIQLSRRYKEQLKNSEKMKIGRDVFLTSFDFHRETSQDGFAAASRIIPKIRNTILDAGYFSYDVKEGRLISEQDGVFRTNCLDCLDRTNLIQQTISLAVFKLFLEDFRLVKPSSFIDDNEFVQKVNALWADNGDQISQIYTGTNALKSSYSRKGKMSFSGALSDATKSVSRMYINNFVDKGKQQNIDTLLGKLPHQQVVELYDPICEYVNERLLESEEKFTTHSNINLFVGTFNVNGNSRRADLSKWLFPIGDKFKPDVVVLGLQEVIELTAGSILNADYTKSSFWETMVTDCLNQYEEKYLLLRVEQMSSLLILFFARSDRAYNIKEVGGSTKKTGFGGITGNKGAVAIRFDYGATSFCFVNTHLSAGASNIDERRNDYNNIYRNITFPRSKTIPHHDSLFWLGDLNYRITLTNDEVRRELRAQKDGYIDRLLQYDQLTQEINEGVVFQGFKEPTLQFRPTYKYDYGTDNYDTSEKARTPSWTDRIIYKGENLHPLAYSDAPLKISDHKPVYAAYRANVKFVDEKEKLNLVEKLYAEYKNTHPEALTTGPDELSHARMEKQKESIPLDATVQSAGIKLIDLDDTSSCVSPLLSGPSPQPSVVGPGGLSNVSPDKSKLNVLPPPPPTSRHNKEPSSKLLSPTKEISIVSVSPRKGESNLPALERHSTPKPLPPVPALSLSKPVSLQKSSSELQHAKETIDNGKIVPRPCPPIRRKSSTAPDEISTSTKNSGVSTTEDPEPAKASTKPEKPPVVKKPHYLSVAANKLNTSQEHSIKVSPSNSKSEEELPCKKKSKPKVPAKNPELEKLSVHPLKPCDPN | 1.813 | 1 | 3.9733 | 1.813 | 1 | 0.1 | 0.1
YNL307C (protein, UniProt P21965 2-375, looked up) Protein kinase MCK1: STEEQNGVPLQRGSEFIADDVTSNKSNNTRRMLVKEYRKIGRGAFGTVVQAYLTQDKKNWLGPFAIKKVPAHTEYKSRELQILRIADHPNIVKLQYFFTHLSPQDNKVYQHLAMECLPETLQIEINRYVTNKLEMPLKHIRLYTYQIARGMLYLHGLGVCHRDIKPSNVLVDPETGVLKICDFGSAKKLEHNQPSISYICSRFYRAPELIIGCTQYTTQIDIWGLGCVMGEMLIGKAIFQGQEPLLQLREIAKLLGPPDKRFIFFSNPAYDGPLFSKPLFSGSSQQRFEKYFGHSGPDGIDLLMKILVYEPQQRLSPRRILAHQFFNELRNDDTFLPRGFTEPIKLPNLFDFNDFELQILGEFADKIKPTKVAE | 1.966 | 0 | 1.521 | 1.966 | 1 | 0.1 | –
